The record followed here is PMC12921663, “NanoBondy Reaction through NeissLock Anhydride Allows Covalent Immune Cell Decoration” (Bioconjugate Chemistry, 2026).

Experiment [1] has as its target T1, endogenous human CD45 at the cell surface (Homo sapiens, UniProt P08575-4).
T1 construct: CD45, human, endogenous; also called CD45RO; source: endogenous, on YTS and NK92 cells and on primary human CD8+ T cells
The experiment can be described thus: flow cytometry on cells; nanobodies incubated with Expi293F, NK92 or YTS cells; detected with anti-VHH-Alexa Fluor 647. The settings on record: one partner purified. (A flow cytometer gives signals particle by particle.)

The target of experiment [2] is T2, CD45d1d2 (d1 and d2 domains of human CD45 linked to an AviTag) (Homo sapiens, biotin (site-specific, on the AviTag); N-linked glycosylation).
T2 construct: CD45, human, extracellular domains d1 and d2; Construct limits may stand in the Supporting Information; also called biotinylated human CD45 domains 1 and 2; source: Expi293F cells, purified
T2 chain: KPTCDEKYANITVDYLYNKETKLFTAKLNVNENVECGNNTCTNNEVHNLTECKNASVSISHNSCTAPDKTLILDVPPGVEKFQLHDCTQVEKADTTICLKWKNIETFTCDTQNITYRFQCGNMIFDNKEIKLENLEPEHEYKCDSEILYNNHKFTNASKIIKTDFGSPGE
Kind of experiment: ELISA; nanobodies coated on a plate, incubated with the indicated concentrations of biotinylated CD45d1d2; colorimetric detection (absorbance at 450 nm). The settings on record: both partners purified. On the technique in general: An ELISA detects its analyte on a solid surface through an enzyme-linked reagent.

T1 sequence (P08575 other isoform, or with tags, fused parts or gaps): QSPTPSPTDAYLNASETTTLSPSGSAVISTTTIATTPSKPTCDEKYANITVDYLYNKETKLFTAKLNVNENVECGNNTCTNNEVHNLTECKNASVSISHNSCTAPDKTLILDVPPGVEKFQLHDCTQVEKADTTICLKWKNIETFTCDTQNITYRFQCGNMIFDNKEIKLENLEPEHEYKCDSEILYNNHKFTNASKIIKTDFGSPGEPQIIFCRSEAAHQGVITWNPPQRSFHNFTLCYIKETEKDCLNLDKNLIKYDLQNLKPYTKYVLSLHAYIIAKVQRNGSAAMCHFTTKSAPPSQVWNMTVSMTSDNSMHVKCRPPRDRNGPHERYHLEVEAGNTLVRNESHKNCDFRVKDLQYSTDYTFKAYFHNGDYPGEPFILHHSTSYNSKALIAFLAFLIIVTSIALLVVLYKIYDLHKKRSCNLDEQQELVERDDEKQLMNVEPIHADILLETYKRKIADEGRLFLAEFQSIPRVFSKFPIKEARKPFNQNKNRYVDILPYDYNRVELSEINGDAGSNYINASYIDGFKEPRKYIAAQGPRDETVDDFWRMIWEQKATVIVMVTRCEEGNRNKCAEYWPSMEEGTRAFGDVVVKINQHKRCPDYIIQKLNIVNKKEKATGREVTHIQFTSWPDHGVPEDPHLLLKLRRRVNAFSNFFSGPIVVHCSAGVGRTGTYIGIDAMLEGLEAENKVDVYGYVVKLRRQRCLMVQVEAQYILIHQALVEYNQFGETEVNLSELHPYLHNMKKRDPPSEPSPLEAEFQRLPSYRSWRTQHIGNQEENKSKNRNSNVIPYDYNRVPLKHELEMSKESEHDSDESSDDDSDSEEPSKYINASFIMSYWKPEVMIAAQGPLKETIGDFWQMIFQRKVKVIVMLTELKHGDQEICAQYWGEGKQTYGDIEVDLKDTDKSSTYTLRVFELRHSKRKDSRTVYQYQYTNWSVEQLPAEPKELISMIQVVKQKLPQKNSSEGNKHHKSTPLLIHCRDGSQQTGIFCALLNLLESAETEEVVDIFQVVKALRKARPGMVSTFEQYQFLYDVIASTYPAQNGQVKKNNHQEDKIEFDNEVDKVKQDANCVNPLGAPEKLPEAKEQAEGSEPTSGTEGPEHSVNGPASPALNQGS

B1: anti-CD45 nanobody 2H5 (VHH)
VHH: QVQLQESGGGLVQTGGSLTLSCVASGGTFSSYAMGWFRQAPGKEREFVAAIGGSGDSTYYADSVKGRFTISRDNAKNSVYLQMNSLKPEDTAVYYCQADPTMFHKLYYGINPNEYDYWGQGTLVTVSS
notes: VHH 2H5 against the d1d2 region of human CD45, from llama immunization; the source of the nanobodies is a cited earlier work
In the case of B1, the binding result in experiment [1] and in experiment [2] was “binds” each time.
